Source: US20080235824A1, “Use of Esterase Genes as Selectable Markers for Transforming Plant Cells” (priority 2006, published 2008)

B1: bovine PGE: bovine pregastric esterase, cloned from calf salivary glands and expressed in plants (protein)
chain: MWWLLVTVCFIHMSGNAFCFLGKIAKNPEASMNVSQMISYWGYPSEMHKVITADGYILQVYRIPHGKNNANHLGQRPVVFLQHGLLGSATNWISNLPKNSLGFLLADAGYDVWLGNSRGNTWAQEHLYYSPDSPEFWAFSFDEMAEYDLPSTIDFILRRTGQKKLHYVGHSQGTTIGFIAFSTNPTLAEKIKVFYALAPVATVKYTKSLFNKLALIPHFLFKIIFGDKMFYPHTFLEQFLGVEMCSRETLDVLCKNALFAITGVDNKNFNMSRLDVYIAHNPAGTSVQNTLHWRQAVKSGKFQAFDWGAPYQNLMHYHQPTPPIYNLTAMNVPIAVWSADNDLLADPQDVDLLLSKLSNLIYHKEIPNYNHLDFIWAMDAPQEVYNEIVSLMAEDKKEL
modifications: Bovine pregastric esterase cloned by IPG, translation product, with native leader and two amino acids added to form an ER retention signal sequence
notes: bovine pregastric esterase, cloned from calf salivary glands and expressed in plants
B2: nematode triglyceride lipase-cholesterol esterase: C. elegans triglyceride lipase-cholesterol esterase expressed in plants (protein)
chain: MKSLLLLFLLFLHTLCENVTTPNSEEDTDMTATPSTITPLLSTAQNPSLPKTSKLPLALKTPVPTFPFSSLATSDWLSSMPTIQTLLPPPLPLTTLEVPENENFGFTSLAPLWTLPTQPPAWSPMLDSPIKPIQNSMFPTFPTMPTLPTLPTLAPFTFPTLPPPTTMKPLNITIDPEALMDVPEIITHWGYPVETHKVVTVDGYILTLHRIPHSKNETSKSASKTPKPVVFLQHGLLCTSSIWLLNLPRQSAGYIFADQGYDVWLGNMRGNTYSKEHTRMTSADRRFWKFSWEEMARYDLPAMINYALKTTKRQNLYYVGHSQGALTMFAKMSEDPEMSKKIRKFFAMAPVARMSHVKGLFQNLGQIYEQYNLVYQVFGDGEFLTNNIFTKLLTDIFCDQAVNNPLCENFIFAVSGPNSNQFNNSRIGIYLAHNPAGTSSRNILHFAQMVKKKRMSRFDHGKDLNLKIYGAPSPPEYDIRKINSSIYLFYSDFDWLANPKDVEGFLIPMLPSKTLKKATKLRDFNHNDFLWGMRARKEIYDKIINTIKLDQRRVKLQNSMERFFERQSRNPTSGLDEETMMRLRNETMNLD
modifications: Caenorhabditis elegans
notes: C. elegans triglyceride lipase-cholesterol esterase expressed in plants

Assay: Phenol red lipase/esterase assay with crude plant leaf extracts
Assay type: biochemical
Conditions: transiently plant-expressed enzyme or positive control
From the text: In this Figure, the first tube on the left (labeled “Buffer”) contains phenol red buffer and Tween 20 (the dark red color appears dark in this black and white figure); the second tube to the right (“SL”) has 4 Units of Sigma porcine pancreatic lipase added (the bright yellow color appears light); the third tube to the right (labeled “731”) has a twenty microliter droplet of a crude tomato plant leaf extract from leaves inoculated 4 days earlier with GV2260 carrying “empty” (ie., no lipase gene) expression vector pIPG731 (the dark red color appears dark), and the fourth tube to the right (“768 WI”) has a twenty microliter droplet of crude tomato plant leaf extract from leaves inoculated four days earlier with GV2260 carrying cloned bovine pregastric esterase expressed in pIPG768 (the bright yellow color appears light). Tomato leaf tissue particles may be seen floating in the third and fourth tubes to the right. […] The photo was taken 16 hrs. after start of the assay.
For transient expression assays of bovine PGE, the plant transformation and expression vectors constructed in Example 12 were moved into A. tumefaciens strain GV2260 by either electroporation or bacterial conjugation as described (Kapila et al., 1997). GV2260 carrying pIPG745 or pIPG746 was used for transient expression in tobacco, pepper, tomato, citrus, geranium, and rice plants as described (Kapila et al. 1997; Duan et al., 1999; Wroblewski et al. 2005). Cultures of Agrobacterium harboring the constructs of interest were grown in minimal medium in the presence of acetosyringone to induce the Agrobacterium vir genes. The optical density of the cultures was maintained at 0.008 for pepper and tomato and at 0.25 for citrus, geranium and rice. Strain GV2260 was flooded into healthy, young, fully expanded leaves of vigorous plants into the apoplastic space through open stomata by injection using a tuberculin syringe without a needle, flooding entire leaves. After 3-4 days, two grams of leaf tissue (fresh weight), was ground in liquid nitrogen to a fine powder, and 0.5 ml of ice cold phosphate buffered saline (PBS; 137 mM NaCl, 2.7 mM KCl, 10 mM potassium phosphate, pH 7.4) was added and mixed thoroughly at 4 C. The mixture was mixed on an orbital shaker at 4 C for 30 minutes, and plant debris was pelleted at 10,000×g for 15 minutes and discarded. The supernatants from these crude plant leaf extracts were directly used in lipase/esterase assays.
The second activity assay was a phenol red lipase/esterase assay using tributyrin, olive oil or Tween 20 as substrates as described by Singh et al. (2006), except that liquid medium, rather than solidified agar medium, was used. Twenty microliter droplets of crude plant leaf extracts and the positive control were placed in the tributyrin/phenol red medium containing tributyrin, olive oil or Tween 20 and incubated at 30 C overnight. […] Transient expression of bovine PGE was confirmed in tobacco, pepper, tomato, citrus, geranium, and rice plants.
For transient expression assays, the plant transformation and expression vectors constructed in Example 15 were moved into A. tumefaciens strain GV2260 by electroporation. GV2260 carrying pIPG823 was used for transient expression in tobacco and geranium plants exactly as described in Example 20. The supernatants from crude plant leaf extracts were directly used in phenol red lipase/esterase assays using tributyrin and olive oil as substrates exactly as described in Example 20.

Row | Molecule | Substrates utilized in phenol red lipase/esterase assay
1 | B1 | utilized all three substrates: tributyrin, olive oil and Tween 20
2 | B2 | utilized tributyrin and olive oil
